From the supplement of paper PMC5949888

What follows are sequences tested on Saccharomyces cerevisiae PS128 hsf1 delta, HSF1(1-493) fusion (assay: growth estimate (transactivation domain function in HSF1 fusion, heat-shock survival) (a.u. (slope of normalised read count over time)); higher = stronger growth at 37°C, i.e. more transactivation activity). Settings: library: design library.
Method in brief: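 Designed transactivation-domain oligos were fused to truncated yeast HSF1 (amino acids 1–493) and expressed in an hsf1-deleted yeast strain. Cells were replica-plated onto –trp 5-FOA plates and incubated at 30°C or 37°C for 0, 2, 4, 6 and 8 days. Inserts were PCR-amplified and Illumina MiSeq-sequenced as six barcoded replicates from one experiment. Growth estimate is the slope of a robust linear fit over time of read counts normalised to sample totals and starting count.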

Row | Sequence | growth estimate
1 | PFPGTQDDFLKWWRSEEAQ | < -0.25
2 | PFPPTQDDFLKWWRSEEAQ | -0.215
3 | PFPRTQDDFLKWWRSEEAQ | -0.248
4 | PFRDTQDDFLKWWRSEEAQ | -0.0923
5 | PGFPGIELQELQELQALLQQ | -0.0439
6 | PKPDTQDDFLKWWRSEEAQ | -0.158
7 | PLSSHGFSVDTSALLDLFSP | 0.0027
8 | PMDDVYNYLFDD | 1.41
9 | PPFPGIELQELQELQALLQQ | -0.187
10 | PQNGEIAQLWDFN | -0.229
11 | PRFPGIELQELQELQALLQQ | < -0.25
12 | QGNGEIAQLWDFN | < -0.25
13 | QKNGEIAQLWDFN | < -0.25
14 | QQAGEIAQLWDFN | < -0.25
15 | QQGGEIAQLWDFN | 0.0021
16 | QQKGEIAQLWDFN | < -0.25
17 | QQNAEIAQLWDFN | < -0.25
18 | QQNGAIAQLWDFN | -0.114
19 | QQNGEGAQLWDFN | < -0.25
20 | QQNGEIAALWDFN | -0.237
21 | QQNGEIAGLWDFN | -0.148
22 | QQNGEIAPLWDFN | < -0.25
23 | QQNGEIAQAWDFN | < -0.25
24 | QQNGEIAQGWDFN | -0.247
25 | QQNGEIAQKWDFN | 0.0645

Row | Sequence | growth estimate
26 | QQNGEIAQLADFN | -0.24
27 | QQNGEIAQLGDFN | -0.218
28 | QQNGEIAQLKDFN | -0.215
29 | QQNGEIAQLRDFN | < -0.25
30 | QQNGEIAQLWDAN | -0.23
31 | QQNGEIAQLWDFA | < -0.25
32 | QQNGEIAQLWDFK | < -0.25
33 | QQNGEIAQLWDFN | -0.146
34 | QQNGEIAQLWDFP | -0.243
35 | QQNGEIAQLWDFR | -0.245
36 | QQNGEIAQLWDGN | -0.163
37 | QQNGEIAQLWDPN | -0.246
38 | QQNGEIAQLWDRN | -0.121
39 | QQNGEIAQLWGFN | < -0.261
40 | QQNGEIAQLWKFN | < -0.25
41 | QQNGEIAQLWRFN | -0.166
42 | QQNGEIAQRWDFN | < -0.25
43 | QQNGEIARLWDFN | -0.234
44 | QQNGEIKQLWDFN | < -0.25
45 | QQNGEIRQLWDFN | -0.0449
46 | QQNGEKAQLWDFN | -0.22
47 | QQNGEPAQLWDFN | -0.235
48 | QQNGERAQLWDFN | -0.0438
49 | QQNGGIAQLWDFN | -0.189
50 | QQNGKIAQLWDFN | -0.237

Row | Sequence | growth estimate
51 | QQNGRIAQLWDFN | -0.248
52 | QQNKEIAQLWDFN | -0.241
53 | QQNPEIAQLWDFN | -0.234
54 | QQNREIAQLWDFN | < -0.25
55 | QQPGEIAQLWDFN | -0.242
56 | QQRGEIAQLWDFN | < -0.25
57 | RADDIWEELLSEDL | 0.445
58 | RDDDEFSLWDSML | 0.648
59 | RDLYSILWSDVY | -0.248
60 | RFDLDMLGDFDLDMLG | 0.634
61 | RFDYDFLFGNDFA | 2.62
62 | RFNDLLDLDFILSN | -0.133
63 | RFPDTQDDFLKWWRSEEAQ | -0.221
64 | RLDESWDYIFETTE | -0.191
65 | RMDDVYNYLFDD | -0.0132
66 | RQNGEIAQLWDFN | < -0.25
67 | TADDVYNYLFDD | 0.0678
68 | TGDDVYNYLFDD | -0.0152
69 | TKDDVYNYLFDD | -0.238
70 | TMADVYNYLFDD | 0.169
71 | TMDAVYNYLFDD | 0.158
72 | TMDDAYNYLFDD | -0.228
73 | TMDDGYNYLFDD | < -0.25
74 | TMDDPYNYLFDD | -0.0775
75 | TMDDRYNYLFDD | -0.144

Row | Sequence | growth estimate
76 | TMDDVGNYLFDD | < -0.25
77 | TMDDVKNYLFDD | < -0.25
78 | TMDDVPNYLFDD | -0.232
79 | TMDDVRNYLFDD | < -0.25
80 | TMDDVYAYLFDD | 4.4
81 | TMDDVYGYLFDD | 0.586
82 | TMDDVYKYLFDD | 0.872
83 | TMDDVYNGLFDD | < -0.25
84 | TMDDVYNKLFDD | < -0.25
85 | TMDDVYNPLFDD | < -0.25
86 | TMDDVYNRLFDD | -0.242
87 | TMDDVYNYKFDD | < -0.25
88 | TMDDVYNYLADD | 0.274
89 | TMDDVYNYLFAD | 1.32
90 | TMDDVYNYLFDA | 0.681
91 | TMDDVYNYLFDG | 0.0766
92 | TMDDVYNYLFDK | -0.18
93 | TMDDVYNYLFDP | 1.58
94 | TMDDVYNYLFDR | -0.243
95 | TMDDVYNYLFGD | 1.05
96 | TMDDVYNYLFKD | < -0.25
97 | TMDDVYNYLFPD | 1.69
98 | TMDDVYNYLFRD | -0.0803
99 | TMDDVYNYLGDD | -0.149
100 | TMDDVYNYLKDD | < -0.25

Row | Sequence | growth estimate
101 | TMDDVYNYLPDD | < -0.25
102 | TMDDVYNYLRDD | < -0.25
103 | TMDDVYNYRFDD | -0.0969
104 | TMDDVYPYLFDD | 0.27
105 | TMDDVYRYLFDD | 1.71
106 | TMGDVYNYLFDD | 0.113
107 | TMKDVYNYLFDD | < -0.25
108 | TMPDVYNYLFDD | -0.0795
109 | TPDDVYNYLFDD | < -0.25
110 | TRDDVYNYLFDD | -0.222
111 | VAADIWEELLSEDL | 1.83
112 | VADAIWEELLSEDL | 0.167
113 | VADDAWEELLSEDL | -0.24
114 | VADDGWEELLSEDL | < -0.259
115 | VADDIAEELLSEDL | -0.224
116 | VADDIPEELLSEDL | -0.228
117 | VADDIWAELLSEDL | 8.23
118 | VADDIWEALLSEDL | 8.8
119 | VADDIWEEALSEDL | -0.233
120 | VADDIWEEKLSEDL | < -0.25
121 | VADDIWEELASEDL | < -0.25
122 | VADDIWEELGSEDL | -0.221
123 | VADDIWEELKSEDL | -0.188
124 | VADDIWEELLAEDL | 2.64
125 | VADDIWEELLGEDL | 2.11

Row | Sequence | growth estimate
126 | VADDIWEELLKEDL | 7.64
127 | VADDIWEELLPEDL | -0.022
128 | VADDIWEELLREDL | 10.8
129 | VADDIWEELLSADL | 3.11
130 | VADDIWEELLSEAL | 5.63
131 | VADDIWEELLSEDA | -0.0522
132 | VADDIWEELLSEDG | 0.0334
133 | VADDIWEELLSEDK | -0.0473
134 | VADDIWEELLSEDL | 0.661
135 | VADDIWEELLSEDP | 0.229
136 | VADDIWEELLSEDR | 0.315
137 | VADDIWEELLSEGL | 10.4
138 | VADDIWEELLSEKL | 3.04
139 | VADDIWEELLSEPL | 5.18
140 | VADDIWEELLSERL | 5.09
141 | VADDIWEELLSGDL | 3.96
142 | VADDIWEELLSKDL | 2.92
143 | VADDIWEELLSPDL | 0.482
144 | VADDIWEELLSRDL | 6.53
145 | VADDIWEELPSEDL | < -0.25
146 | VADDIWEELRSEDL | -0.205
147 | VADDIWEERLSEDL | < -0.25
148 | VADDIWEGLLSEDL | 0.676
149 | VADDIWEKLLSEDL | 2.03
150 | VADDIWEPLLSEDL | -0.234
